Assay results: US20250320281A1

What was measured:
Experiment in all cases: cell-based or functional assay
[1] = target: HIV-1 Env of pseudovirus MGRM-Chronic-B-020 (HIV-1)
[2] = target: HIV-1 Env of isolate MGRM-Chronic-B-008, clade B, on pseudovirus (HIV-1)
[3] = target: HIV-1 IAVI-C18 envelope glycoprotein (Env) on pseudovirus (HIV-1)
[4] = target: HIV-1 Env of isolate 97ZA012 (clade C) (HIV-1 isolate 97ZA012)
[5] = target: HIV-1 Env of isolate APV_6, clade B, on pseudovirus (HIV-1)
[6] = target: HIV-1 Env of pseudovirus MGRM-AG-006 (clade CRF_AG) (HIV-1)
[7] = target: HIV-1 Env of pseudovirus MGRM-G-006 (clade G) (HIV-1)
[8] = target: HIV-1 Env of pseudovirus MGRM-G-019 (HIV-1, clade G isolate MGRM-G-019)
[9] = target: HIV-1 Env of pseudovirus MGRM-AG-008 (clade CRF_AG) (HIV-1)
[10] = target: envelope protein of aMLV pseudovirus (negative control)
[11] = target: HIV-1 Env of pseudovirus MGRM-G-024 (HIV-1, clade G isolate MGRM-G-024)
[12] = target: HIV-1 Env of pseudovirus MGRM-G-015 (HIV-1, clade G isolate MGRM-G-015)
[13] = target: HIV-1 Env of pseudovirus MGRM-AG-013 (clade CRF_AG) (HIV-1)
[14] = target: HIV-1 envelope glycoprotein (Env) of isolate MGRM-A-008, clade A (HIV-1)
[15] = target: HIV-1 envelope glycoprotein (Env) of isolate MGRM-A-005, clade A (HIV-1)
[16] = target: HIV-1 93IN905 envelope glycoprotein (Env) on pseudovirus (HIV-1)
[17] = target: HIV-1 Env of isolate MGRM-D-008 (clade D pseudovirus) (HIV-1)
[18] = target: HIV-1 envelope glycoprotein (Env) of isolate MGRM-C-007 (HIV-1)
[19] = target: HIV-1 92BR020 Env (pseudovirus) (HIV-1)
[20] = target: HIV-1 MGRM-A-010 Env (pseudovirus, clade A) (HIV-1)
[21] = target: HIV-1 92BR020 Env (pseudovirus, clade B) (HIV-1)
[22] = target: HIV-1 Env of isolate MG RM-D-018 (HIV-1)
[23] = target: HIV-1 envelope glycoprotein (Env) of isolate MGRM-C-020 (HIV-1)
[24] = target: HIV-1 Env of isolate MGRM-C-026 (pseudovirus) (HIV-1)
[25] = target: HIV-1 Env of isolate MGRM-A-004 (HIV-1)
[26] = target: HIV-1 Env of isolate JRCSF (subtype B) (HIV-1) (UniProt P20871)
[27] = target: HIV-1 Env of isolate 92UG024 (HIV-1)
[28] = target: HIV-1 Env of isolate MGRM-A-011 (subtype A) (HIV-1)
[29] = target: HIV-1 Env of isolate 93WR029 (HIV-1)
[30] = target: HIV-1 Env of isolate APV-6 (HIV-1)
[31] = target: HIV-1 Env of isolate MGRM-Chronic-B-010 (subtype B) (HIV-1)
[32] = target: HIV-1 Env of isolate MGRM-Chronic-B-012 (subtype B) (HIV-1)

Sequence of 1443_C16 (PG16) (TCN-116) (antibody) (VH): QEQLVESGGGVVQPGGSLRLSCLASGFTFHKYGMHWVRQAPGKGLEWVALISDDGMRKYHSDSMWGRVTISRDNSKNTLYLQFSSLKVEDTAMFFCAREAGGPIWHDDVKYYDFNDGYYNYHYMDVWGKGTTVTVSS
Sequence of 1443_C16 (PG16) (TCN-116) (antibody) (VL): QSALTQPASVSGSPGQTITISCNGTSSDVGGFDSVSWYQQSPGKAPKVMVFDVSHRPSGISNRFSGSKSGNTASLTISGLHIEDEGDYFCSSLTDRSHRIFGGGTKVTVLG

## 4E10 (antibody)
[1]
  IC50 (µg/ml), pseudovirus neutralization: 2.45 µg/mL
[2]
  IC50 (µg/ml), pseudovirus neutralization: 16.7 µg/mL
[3]
  IC50, pseudovirus neutralization: > 50 µg/mL
[4]
  IC50 (µg/ml), pseudovirus neutralization: 4.7 µg/mL
[5]
  IC50 (µg/ml), pseudovirus neutralization: 1.1 µg/mL
[6]
  IC50: 1.76 µg/mL
[7]
  IC50: 1.23 µg/mL
[8]
  IC50 (µg/ml), pseudovirus neutralization: 6.53 µg/mL
[9]
  IC50: 1.48 µg/mL
[10]
  IC50 (µg/ml), pseudovirus neutralization: > 50 µg/mL
[11]
  IC50 (µg/ml), pseudovirus neutralization: 1.57 µg/mL
[12]
  IC50 (µg/ml), pseudovirus neutralization: 1.07 µg/mL
[13]
  IC50: 2.61 µg/mL
[14]
  IC50 (µg/ml), pseudovirus neutralization: 7.59 µg/mL
[15]
  IC50 (µg/ml), pseudovirus neutralization: 4.09 µg/mL
[16]
  IC50, pseudovirus neutralization: 1.55 µg/mL
[17]
  IC50 (µg/ml), pseudovirus neutralization: 42.9 µg/mL

## 5147_N06 (PGT-130) (antibody)
[18]
  IC50 (µg/mL), pseudovirus neutralization: > 50 µg/mL
[19]
  Neutralization by PGT-130, IC50: 1.12 µg/mL
  Neutralization by PGT-130, IC80: > 10 µg/mL
  Neutralization by PGT-130, IC90: > 10 µg/mL
  Neutralization by PGT-130, IC95: > 10 µg/mL
  neutralization IC50 (pseudovirus): 1.12 µg/mL
[20]
  IC50 neutralization: 0.0054 µg/mL
[21]
  IC50 neutralization: 1.12 µg/mL
[22]
  IC50 (µg/mL), pseudovirus neutralization: 0.049 µg/mL
[23]
  IC50 (µg/mL), pseudovirus neutralization: > 50 µg/mL
[24]
  Polyclonal Transfectant Neutralization Index: 1.05
  Primary Neutralization Index (B cell culture supernatant): 3
[25]
  IC50: > 50 µg/mL
[26]
  IC50 neutralization: 0.01 µg/mL
[27]
  IC50 (µg/mL), pseudovirus neutralization: > 50 µg/mL
[28]
  IC50 (µg/mL), pseudovirus neutralization: > 50 µg/mL
[29]
  IC50: 34.3 µg/mL
[30]
  neutralization IC50: > 50 µg/mL
[31]
  IC50 neutralization: 0.006 µg/mL
[32]
  IC50 neutralization: 0.373 µg/mL

## 1443_C16 (PG16) (TCN-116) (antibody)
[1]
  IC50 (µg/ml), pseudovirus neutralization: > 50 µg/mL
[2]
  IC50 (µg/ml), pseudovirus neutralization: 0.73 µg/mL
[3]
  IC50, pseudovirus neutralization: 0.0067 µg/mL
[4]
  IC50 (µg/ml), pseudovirus neutralization: 2.55 µg/mL
[5]
  IC50 (µg/ml), pseudovirus neutralization: 0.29 µg/mL
[6]
  IC50: > 50 µg/mL
[7]
  IC50: 2.42 µg/mL
[8]
  IC50 (µg/ml), pseudovirus neutralization: 1.21 µg/mL
[9]
  IC50: 0.002 µg/mL
[10]
  IC50 (µg/ml), pseudovirus neutralization: > 50 µg/mL
[11]
  IC50 (µg/ml), pseudovirus neutralization: 0.01 µg/mL
[12]
  IC50 (µg/ml), pseudovirus neutralization: 5.33 µg/mL
[13]
  IC50: 0.31 µg/mL
[14]
  IC50 (µg/ml), pseudovirus neutralization: > 50 µg/mL
[15]
  IC50 (µg/ml), pseudovirus neutralization: 0.09 µg/mL
[16]
  IC50, pseudovirus neutralization: 0.102 µg/mL
[17]
  IC50 (µg/ml), pseudovirus neutralization: > 50 µg/mL

## 5343_B08 (PGT-135) (antibody)
[18]
  IC50 (µg/mL), pseudovirus neutralization: > 50 µg/mL
[19]
  neutralization IC50 (pseudovirus): 0.104 µg/mL
[20]
  IC50 neutralization: > 10 µg/mL
[21]
  IC50 neutralization: 0.104 µg/mL
[22]
  IC50 (µg/mL), pseudovirus neutralization: 0.039 µg/mL
[23]
  IC50 (µg/mL), pseudovirus neutralization: > 50 µg/mL
[24]
  Primary Neutralization Index (B cell culture supernatant): 6.5
[25]
  IC50: > 50 µg/mL
[26]
  IC50 neutralization: 0.131 µg/mL
[27]
  IC50 (µg/mL), pseudovirus neutralization: 0.01 µg/mL
[28]
  IC50 (µg/mL), pseudovirus neutralization: > 50 µg/mL
[29]
  IC50: > 50 µg/mL
[30]
  neutralization IC50: > 50 µg/mL
[31]
  IC50 neutralization: > 50 µg/mL
[32]
  IC50 neutralization: 0.166 µg/mL
